Results: US20220305136A1, “ANTI-CTLA4 CONJUGATES” (Ascendis Pharma Oncology Division A/S, priority 2019, published 2022)

Test: Plasma pharmacokinetics of HHC^MET in Wistar rats
Assay type: in vivo
Conditions: n=3
Protocol: This study was performed in order to investigate the plasma pharmacokinetics of HHC^MET in Wistar rats following subcutaneous and intramuscular administration of transient HHC^MET-linker hydrogel prodrug 32 or following subcutaneous or intravenous administration of free HHC^MET. Animals (n=3 per group) received either a single SC injection in the neck region or a single IM injection in the thigh musculature of a formulation of 32 (10 mg/kg HHC^MET equivalents) or a single SC injection in the neck region or IV injection in the tail vein of an HHC^MET formulation (10 mg/kg HHCMet). At selected time points, 200 μL blood were collected in L^1-Heparin tubes and processed to plasma by centrifugation at 3,000 g for 10 minutes at 4° C.
HHC^MET concentrations in rat plasma were determined with an in-house developed sandwich ELISA setup. For capturing HHC^MET, a human CTLA-4 (AA Ala37-Ser160)—Fc Tag fusion protein (Supplier AcroBiosystem, Newark, Del.; USA, catalog no. CT4-H5255) was coated to the ELISA plate wells and read-out was performed via a rabbit anti-camelid VHH antibody conjugated with horseradish peroxidase (supplier Genscript, Piscataway, N.J., USA, catalog no. A01861-200).
Calibration standards of HHC^MET in blank plasma were prepared as follows: thawed L^1-Heparin Wistar rat plasma was homogenized. The free HHC^MET formulation was spiked into blank plasma at concentrations between 96.0 ng/mL and 3.00 ng/mL with additional higher and lower anchor points. These solutions were used for the generation of a calibration curve. Calibration curves were analyzed via a 4-parameter logarithmic fit and 1/Y weighted. Calibration curves were confirmed via separately prepared quality control standards at 10, 40 and 80 ng/mL.

B1: HHC^MET: custom made protein of SEQ ID NO:2, expressed from E. coli; captured by human CTLA-4 and detected with anti-camelid VHH antibody in ELISA (protein)
chain: EVQLVESGGGLVQAGGSLRLSCAASGGTFSFYGMGWFRQAPGKEQEFVADIRTSAGRTYYADSVKGRFTISRDNAKNTVYLQMNSLKPEDTAVYYCAAEMSGISGWDYWGQGTQVTVSSGGGGSGGGSEVQLVESGGGLVQAGGSLRLSCAASGGTFSFYGMGWFRQAPGKEQEFVADIRTSAGRTYYADSVKGRFTISRDNAKNTVYLQMNSLKPEDTAVYYCAAEMSGISGWDYWGQGTQVTVSS
modifications: nanobody
notes: captured by human CTLA-4 and detected with anti-camelid VHH antibody in ELISA
mean HHC^MET concentration (0.25 h, 10 mg/kg HHC^MET (equivalents), subcutaneous): 2540 ng/mL
mean HHC^MET concentration (0.25 h, 10 mg/kg intravenous): 17400 ng/mL
mean HHC^MET concentration (1 h, 10 mg/kg HHC^MET (equivalents), subcutaneous): 5090 ng/mL
mean HHC^MET concentration (1 h, 10 mg/kg intravenous): 3530 ng/mL
mean HHC^MET concentration (4 h, 10 mg/kg HHC^MET (equivalents), subcutaneous): 2280 ng/mL
mean HHC^MET concentration (4 h, 10 mg/kg intravenous): 1720 ng/mL
mean HHC^MET concentration (24 h, 10 mg/kg HHC^MET (equivalents), subcutaneous, LLOQ 3.00 ng/mL): 2.60 ng/mL
mean HHC^MET concentration (24 h, 10 mg/kg intravenous): 8.27 ng/mL
mean HHC^MET concentration (32 h, 10 mg/kg HHC^MET (equivalents), subcutaneous, LLOQ 3.00 ng/mL): <LLOQ
mean HHC^MET concentration (32 h, 10 mg/kg intravenous, LLOQ 3.00 ng/mL): <LLOQ
mean HHC^MET concentration (48 h, 10 mg/kg HHC^MET (equivalents), subcutaneous, LLOQ 3.00 ng/mL): <LLOQ
mean HHC^MET concentration (48 h, 10 mg/kg intravenous, LLOQ 3.00 ng/mL): <LLOQ
mean HHC^MET concentration (72 h, 10 mg/kg HHC^MET (equivalents), subcutaneous, LLOQ 3.00 ng/mL): 2.07 ng/mL
mean HHC^MET concentration (72 h, 10 mg/kg intravenous, LLOQ 3.00 ng/mL): 1.15 ng/mL
mean HHC^MET concentration (96 h, 10 mg/kg HHC^MET (equivalents), subcutaneous, LLOQ 3.00 ng/mL): <LLOQ
mean HHC^MET concentration (96 h, 10 mg/kg intravenous, LLOQ 3.00 ng/mL): <LLOQ
mean HHC^MET concentration (168 h, 10 mg/kg HHC^MET (equivalents), subcutaneous, LLOQ 3.00 ng/mL): <LLOQ
mean HHC^MET concentration (168 h, 10 mg/kg intravenous, LLOQ 3.00 ng/mL): <LLOQ
